Measurements from PMC8020760, “Assembly of a dsRNA synthesizing complex: RNA-DEPENDENT RNA POLYMERASE 2 contacts the largest subunit of NUCLEAR RNA POLYMERASE IV” (Proceedings of the National Academy of Sciences of the …, 2021).

T1: recombinant RNA-DEPENDENT RNA POLYMERASE 2 (RDR2), wild type, with N-terminal V5 epitope and 6xHis tags (A. thaliana, UniProt O82504 1-1133)
T1 sequence (looked up): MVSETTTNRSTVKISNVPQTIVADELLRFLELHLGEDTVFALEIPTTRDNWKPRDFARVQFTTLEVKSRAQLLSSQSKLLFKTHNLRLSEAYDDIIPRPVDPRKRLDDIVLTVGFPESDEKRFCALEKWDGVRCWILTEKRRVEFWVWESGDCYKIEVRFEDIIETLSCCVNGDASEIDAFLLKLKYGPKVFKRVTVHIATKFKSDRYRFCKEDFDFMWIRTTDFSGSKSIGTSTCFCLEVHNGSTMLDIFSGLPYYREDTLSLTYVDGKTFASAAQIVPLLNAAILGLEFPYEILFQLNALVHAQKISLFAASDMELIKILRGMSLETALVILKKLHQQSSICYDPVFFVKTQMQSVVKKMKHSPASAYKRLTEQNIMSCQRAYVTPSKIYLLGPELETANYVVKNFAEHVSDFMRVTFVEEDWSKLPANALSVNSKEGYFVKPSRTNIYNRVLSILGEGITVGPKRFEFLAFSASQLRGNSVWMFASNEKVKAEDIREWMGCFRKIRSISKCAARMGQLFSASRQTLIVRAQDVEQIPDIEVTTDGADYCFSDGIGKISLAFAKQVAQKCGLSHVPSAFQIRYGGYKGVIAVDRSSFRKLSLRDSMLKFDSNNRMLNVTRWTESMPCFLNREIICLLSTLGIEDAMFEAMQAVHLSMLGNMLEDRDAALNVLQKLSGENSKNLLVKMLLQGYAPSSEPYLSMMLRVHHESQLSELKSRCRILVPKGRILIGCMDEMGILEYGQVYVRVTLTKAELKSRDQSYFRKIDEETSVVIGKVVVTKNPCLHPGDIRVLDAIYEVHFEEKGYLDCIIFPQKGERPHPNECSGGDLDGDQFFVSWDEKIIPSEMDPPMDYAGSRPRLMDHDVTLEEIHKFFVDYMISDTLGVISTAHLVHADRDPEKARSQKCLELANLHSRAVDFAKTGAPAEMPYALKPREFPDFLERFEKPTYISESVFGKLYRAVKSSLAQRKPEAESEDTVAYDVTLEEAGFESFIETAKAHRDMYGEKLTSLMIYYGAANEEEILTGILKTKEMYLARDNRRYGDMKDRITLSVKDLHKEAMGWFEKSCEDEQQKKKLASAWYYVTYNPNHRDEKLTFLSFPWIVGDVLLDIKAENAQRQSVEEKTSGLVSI

B1: recombinant RDR2_(771–970) with His and HA tags, made in E. coli (domain or fragment, A. thaliana, UniProt O82504 771-970, looked up)
chain: ETSVVIGKVVVTKNPCLHPGDIRVLDAIYEVHFEEKGYLDCIIFPQKGERPHPNECSGGDLDGDQFFVSWDEKIIPSEMDPPMDYAGSRPRLMDHDVTLEEIHKFFVDYMISDTLGVISTAHLVHADRDPEKARSQKCLELANLHSRAVDFAKTGAPAEMPYALKPREFPDFLERFEKPTYISESVFGKLYRAVKSSLAQ
notes: The methods give the C-terminal limit as 971, the results and legends as 970; More in SI Appendix, Methods; source: E. coli (pET28 vector), purified (nickel-NTA by the methods; anti-HA resin by the results)
B2: recombinant NRPD1_(1–300) with His and FLAG tags, made in E. coli (domain or fragment, A. thaliana, UniProt Q9LQ02 1-300, looked up)
chain: MEDDCEELQVPVGTLTSIGFSISNNNDRDKMSVLEVEAPNQVTDSRLGLPNPDSVCRTCGSKDRKVCEGHFGVINFAYSIINPYFLKEVAALLNKICPGCKYIRKKQFQITEDQPERCRYCTLNTGYPLMKFRVTTKEVFRRSGIVVEVNEESLMKLKKRGVLTLPPDYWSFLPQDSNIDESCLKPTRRIITHAQVYALLLGIDQRLIKKDIPMFNSLGLTSFPVTPNGYRVTEIVHQFNGARLIFDERTRIYKKLVGFEGNTLELSSRVMECMQYSRLFSETVSSSKDSANPYQKKSDT
notes: NRPD1, A. thaliana, amino acids 1-300 of 1,453; More in SI Appendix, Methods; also called NRPD1_(1–300)-FLAG; FLAG-tagged NRPD1_(1–300); source: E. coli (pET28 vector), purified (nickel-NTA by the methods; by its C-terminal FLAG tag by the results); not shown: FLAG, C-terminal, kept

biological target: B2; assay: co-IP; purified recombinant proteins, 0.25 µM each, 30 min, room temperature, 50 mM Hepes-KOH pH 7.5, 150 mM NaCl; IP with resin against the tag of one or the other partner (anti-FLAG, anti-V5 or anti-HA); immunoblot; conditions: both partners purified

binding result | Binder
binds | B1

biological target: T1, recombinant RNA-DEPENDENT RNA …; assay: as above; conditions: both partners purified

binding result | Binder
binds | B2

biological target: B2; assay: peptide or protein array; synthetic peptides (10 ng) dot-blotted onto nitrocellulose, probed with about 200 ng NRPD1_(1–300)-FLAG or RDR2_(771–970)-HA in 8 mL 50 mM Hepes-KOH pH 7.5, 100 mM NaCl, room temperature, 1 h; anti-FLAG-HRP or anti-HA-HRP, chemiluminescence; conditions: both partners purified

binding result | Binder
binds | EIHKFFVDYMISDTL (peptide, UniProt O82504 871-885, looked up, RDR2, A. thaliana; 15-mer of the array; limits worked out from the design; holds K874; Peptides were 'typically' 15 amino acids long; source: synthetic peptide (Genscript)) [RDR2 peptide 11 of the RDR2_(771–970) peptide array]
binds | ISDTLGVISTAHLVH (peptide, UniProt O82504 881-895, looked up, RDR2, A. thaliana; 15-mer of the array; limits worked out from the design; Peptides were 'typically' 15 amino acids long; source: synthetic peptide (Genscript)) [RDR2 peptide 12 of the RDR2_(771–970) peptide array]
binds | RLMDHDVTLEEIHKF (peptide, UniProt O82504 861-875, looked up, RDR2, A. thaliana; 15-mer of the array; limits worked out from the design; holds K874; Peptides were 'typically' 15 amino acids long; source: synthetic peptide (Genscript)) [RDR2 peptide 10 of the RDR2_(771–970) peptide array]

biological target: B1; assay: as above; conditions: both partners purified

binding result | Binder
binds | CTLNTGYPLMKFRVT (peptide, UniProt Q9LQ02 121-135, looked up, NRPD1, A. thaliana; 15-mer of the array; limits worked out from the design; holds K131; Peptides were 'typically' 15 amino acids long; source: synthetic peptide (Genscript)) [NRPD1 peptide 13 of the NRPD1_(1–300) peptide array]
binds | RIYKKLVGFEGNTLE (peptide, UniProt Q9LQ02 251-265, looked up, NRPD1, A. thaliana; 15-mer of the array; limits worked out from the design; holds K254 and K255; Peptides were 'typically' 15 amino acids long; source: synthetic peptide (Genscript)) [NRPD1 peptide 26 of the NRPD1_(1–300) peptide array]
binds | GARLIFDERTRIYKK (peptide, UniProt Q9LQ02 241-255, looked up, NRPD1, A. thaliana; 15-mer of the array; limits worked out from the design; holds K254 and K255; Peptides were 'typically' 15 amino acids long; source: synthetic peptide (Genscript)) [NRPD1 peptide 25 of the NRPD1_(1–300) peptide array]
binds | RVTEIVHQFNGARLI (peptide, UniProt Q9LQ02 231-245, looked up, NRPD1, A. thaliana; 15-mer of the array; limits worked out from the design; Peptides were 'typically' 15 amino acids long; source: synthetic peptide (Genscript)) [NRPD1 peptide 24 of the NRPD1_(1–300) peptide array]
binds | INPYFLKEVAALLNK (peptide, UniProt Q9LQ02 81-95, looked up, NRPD1, A. thaliana; 15-mer of the array of 30 peptides over 1-300 that overlap by 5; limits worked out from the design; Peptides were 'typically' 15 amino acids long; source: synthetic peptide (Genscript)) [NRPD1 peptide 9 of the NRPD1_(1–300) peptide array]
binds | TEDQPERCRYCTLNT (peptide, UniProt Q9LQ02 111-125, looked up, NRPD1, A. thaliana; 15-mer of the array; limits worked out from the design; holds a CxxC motif; Peptides were 'typically' 15 amino acids long; source: synthetic peptide (Genscript)) [NRPD1 peptide 12 of the NRPD1_(1–300) peptide array]
binds | ALLNKICPGCKYIRK (peptide, UniProt Q9LQ02 91-105, looked up, NRPD1, A. thaliana; 15-mer of the array; limits worked out from the design; holds a CxxC motif; Peptides were 'typically' 15 amino acids long; source: synthetic peptide (Genscript)) [NRPD1 peptide 10 of the NRPD1_(1–300) peptide array]
